Results on one molecule are retold here after US11473073B2, “Aminopeptidases for protein hydrolyzates” (DUPONT NUTRITION BIOSCIENCES APS, priority 2015, dated 2022).

In test [1] the test system is peptide WHWLQLKPGQPMY (SEQ ID NO:26). The conditions noted are these: as described by Blinkovsky et al., Biochimica et Biophysica Acta 1480 (2000) 171-181; cited from earlier work.
Test [2] has the same test system. Briefly: Hydrolysis of proline containing peptide, LC-MS. The format is biochemical. The conditions noted are these: peptide 1 mg/mL, aminopeptidase 1 ug/mL, CPB-Buffer, 55° C.; FIG. 5-7. As to the method: The peptide […] (SEQ ID NO:26) was hydrolysed with TRI03 and TRI035. The peptide (1 mg/mL) was incubated with 1 ug/mL of the aminopeptidase in 20 mM CPB-Buffer (20 mM Citric acid, 20 mM Phosphate. 20 mM Boric acid) at 55° C. Aliquots (50 μL) were stopped with 50 rel 5% TFA at the indicated time points and subjected to LC-MS analysis.
Capillary LC-MS/MS analyses were performed using an Agilent 1100 LC system (Agilent Technologies) interfaced to a LTQ Orbitrap Classic hybrid mass spectrometer (Thermo Scientific, Bremen, Germany). Samples were loaded onto a 15 cm Phenomenix Jupiter 4μ Proteo 90A, C4 analytical column. Separation was performed at a flow rate of 16 μL/min using a 10 min gradient of 0-40% Solvent B H2O/CH3CN/HCOOH (50/950/0.65 v/v/v) into the IONMAX® ion source (Thermo Scientific, San Jose). The LTQ Orbitrap Classic instrument was operated in a data-dependent MS/MS mode. The peptide masses were measured by the Orbitrap (MS scans were obtained with a resolution of 60 000 at m/z 400), and up to 2 of the most intense peptide m/z were selected and subjected to fragmentation using CID in the linear ion trap (LTQ). Dynamic exclusion was enabled with a list size of 500 masses, duration of 40 s, and an exclusion mass width of ±10 ppm relative to masses on the list.
The RAW files were accessed with the program Skyline 2.6.0.7176 (MacLean, B., et al., “Skyline: an open source document editor for creating and analyzing targeted proteomics experiments”, Bioinformatics, 2010, 26(7): p. 966-8) which uses the MS1 intensities to build chromatograms (Schilling, B., et al., “Platform-independent and label-free quantitation of proteomic data using MS1 extracted ion chromatograms in skyline: application to protein acetylation and phosphorylation”, Mol Cell Proteomics, 2012. 11(5): p. 202-14). The precursor isotopic import filter was set to a count of three, (M, M+1, and M+2) at a resolution of 60,000 and the most intense charge state was used. Peptide sequences of the substrate as well as cleavage products were typed into Skyline and intensities were calculated in each sample. […]

B1: Aspergillus oryzae PepN 2: Aspergillus oryzae PepN 2 described by A. M. Blinkovsky et al., Biochimica et Biophysica Acta 1480 (2000) 171-181 (protein)
chain: RALVSPDEFPEDIQLEDLLEGSQQLEDFAYAYPERNRVFGGKAHDDTVNYLYEELKKTGYYDVYKQPQVHLWSNADQTLKVGDEEIEAKTMTYSPSVEVTADVAVVKNLGCSEADYPSDVEGKVALIKRGECPFGDKSVLAAKAKAAASIVYNNVAGSMAGTLGAAQSDKGPYSAIVGISLEDGQKLIKLAEAGSVSVDLWVDSKQENRTTYNVVAQTKGGDPNNVVALGGHTDSVEAGPGINDDGSGIISNLVIAKALTQYSVKNAVRFLFWTAEEFGLLGSNYYVSHLNATELNKIRLYLNFDMIASPNYALMIYDGDGSAFNQSGPAGSAQIEKLFEDYYDSIDLPHIPTQFDGRSDYEAFILNGIPSGGLFTGAEGIMSEENASRWGGQAGVAYDANYHAAGDNMTNLNHEAFLINSKATAFAVATYANDLSSIPKRNTTSSLHRRARTMRPFGKRAPKTHAHVSGSGCWHSQVEA
Turning to B1, the “hydrolysis of X-Pro bonds including those of WHWLQLKPGQPMY” value in test [1] is “does not hydrolyze”. Besides, in test [2], the “hydrolysis of WHWLQLKPGQPMY to KPGQPMY and further down to QPMY” value is reported as “cleaves the peptide down to QPMY”.
